B1: LINE1-full (parent)
chain: UACGUAGGUGGUUUUCCCCUGAUAGUGCUAAGGGGGCCUGGAAGUUUGGACUGGGCAGAGCUCAACACAGCGUGGCAAAGUGGCUGUGGCUAGACUGCCUCUCUGGAUUCCUCGUCACUCAGCAGGGCAUCUCUGAGAGAAAUGCC

Variants of B1 are the subject of this series. The experiment in a line: self-cleavage, relative activity (ratio to wild type); higher = more cleavage; in vitro, sequencing; the parent is a self-cleaving ribozyme.
U96C U102C: the self-cleavage turned out to be 0.12.
The result for U96C U102A reads 0.11.
Regarding G93U G122A, the self-cleavage was determined as 0.06.
For U96A U134C, the self-cleavage came out at 0.08.
A92G C118U: the self-cleavage was 0.07.
On to U91A A142G, for which the self-cleavage was determined as 0.63.
Turning to U96A C116U, the self-cleavage was 0.11.
For the variant U96C, the self-cleavage was 0.13.
As for U96G, the figure is 0.1; as for U96A, 0.07.
The result for A92G U115C reads 0.08.
Consider U91A U96A, for which the self-cleavage was 0.04.
The result for U91C U109C reads 0.61; that for A92G, 0.1; that for A92U, 0.66.
With A92C, the self-cleavage amounted to 0.13.
In the case of A92U U115A, the self-cleavage was found to be 0.62.
The result for A92U U115C reads 0.72; that for U91C G125A, 0.32; that for U96A C99U, 0.03.
The result for G93C C120U reads 0.03; that for A94U U102C, 0.16.
The result for A92G G137U reads 0.07; that for C95U U96C, 0.07.
As for G97A A121C, the self-cleavage turned out to be 0.12.
The result for U91G G114C reads 0.02.
As for A94U A117U, the self-cleavage was 0.41.
As for A94U A117G, the figure is 0.38; as for U91C A142G, 0.73; as for U96C C120U, 0.2.
The result for U96A A121G reads 0.1; that for U96A A121C, 0.06.
Take U96A U100A: the self-cleavage was 0.07.
Regarding U96C C131U, the self-cleavage worked out at 0.09.
As for U91C A141U, the figure is 0.51; as for A94G A140G, 0.26; as for U96A A141G, 0.08.
Regarding U91C A124C, the self-cleavage was found to be 0.69.
The result for U96A U108A reads 0.13.
The result for C95U A124U reads 0.2; that for G93C, 0.05; that for G93A, 0.04.
The result for G93U reads 0.06; that for G93A A129G, 0.08; that for U96C C133U, 0.08.
For A94C C95U, the self-cleavage came to 0.02.
In the case of U91G U119C, the self-cleavage was found to be 0.
On to U96C G105A, for which the self-cleavage was determined as 0.06.
Take U96C U112C: the self-cleavage amounted to 0.12.
Take U96C U112A: the self-cleavage was 0.12.
As for A92G C110U, the figure is 0.05; as for A92U G126A, 0.41; as for A94G A138G, 0.19.
Consider U96C U130A, for which the self-cleavage was found to be 0.12.
As for U91C C110G, the figure is 0.58; as for U91A A136G, 0.36.
Take U91A A136U: the self-cleavage is 0.54.
For U91C C146U, the self-cleavage was 0.53.
The result for A92U A129U reads 0.6; that for A92U A129G, 0.69.
As for A92G G114A, the figure is 0.1; as for U91C A92U, 0.23.
The result for U91C A92G reads 0.1; that for A92U A141G, 0.96.
For A92G C133U, the self-cleavage was determined as 0.02.
As for A94U A136G, the figure is 0.3; as for U91C U112A, 0.42.
The result for G93U U112C reads 0.03; that for U96G U119A, 0.03; that for U91A U100C, 0.96.
The result for A92U U134A reads 0.52; that for A92U U134C, 0.71.
As to A92U U104A, the self-cleavage was found to be 0.44.
As for U91C A121G, the figure is 1.29; as for U96C C101U, 0.06; as for U91C C145U, 0.43.
As for A92G A124G, the figure is 0.04.
As for A92G U119C, the figure is 0.1; as for A94U A121G, 0.52.
For U91C A138G, the self-cleavage was found to be 1.98.
The result for A94G U108C reads 0.61; that for U96C U109G, 0.16.
The result for U96C U109C reads 0.08.
The result for U96C U109A reads 0.15; that for U91C C101U, 0.69; that for A92U U108A, 0.6.
Turning to A92U C120U, the self-cleavage was found to be 0.78.
As for A94U A124U, the figure is 0.35; as for A94U A124G, 0.33; as for U91C C99U, 0.12.
Take U96C A107U: the self-cleavage was found to be 0.17.
Take A92U C118G: the self-cleavage came to 0.37.
Consider U91A U134A, for which the self-cleavage amounted to 0.18.
For the variant U91A U134C, the self-cleavage was found to be 0.45.
On to A92C U104A, for which the self-cleavage came out at 0.38.
As for U91A U112C, the figure is 0.58; as for A94U A140G, 0.23; as for U96C C123U, 0.04.
The result for U91G A141G reads 0.06; that for U96C G122A, 0.07.
Turning to A94C A117C, the self-cleavage was found to be 0.07.
As for A94C A117G, the figure is 0.22.
As for G93A U108C, the figure is 0.03; as for U91A U102C, 0.22; as for U91A U104A, 0.46.
The result for U91A A129U reads 0.86.
For the variant A92G C146U, the self-cleavage was determined as 0.07.
As for A92U U109C, the self-cleavage worked out at 0.65.
The result for A92U U109A reads 0.34; that for U96C G114A, 0.11.
With U96A U132A, the self-cleavage turned out to be 0.08.
For the variant U96C A140G, the self-cleavage was 0.09.
As for G93A U130C, the figure is 0.02; as for U96G C120U, 0.04.
In the case of U91A G126A, the self-cleavage stood at 0.43.
As to A92G U100A, the self-cleavage was 0.13.
Take C95U U134C: the self-cleavage came to 0.11.
As for A92U U96C, the figure is 0.11.
For the variant G97A G126A, the self-cleavage was 0.09.
As for G97A G126U, the self-cleavage was 0.07.
For the variant U91C U104A, the self-cleavage is 0.34.
Consider U91C U104C, for which the self-cleavage was found to be 1.15.
A94U U96A: the self-cleavage came to 0.08.
On to U91C G122A, for which the self-cleavage was determined as 0.29.
Take A94G C131U: the self-cleavage amounted to 0.17.
With G97A A107G, the self-cleavage came to 0.13.
For the variant G93U U115C, the self-cleavage was found to be 0.04.
The result for A92G G122A reads 0.13; that for A94G C110U, 0.32; that for A94G C110G, 0.22.
As to A92G A138U, the self-cleavage was found to be 0.11.
Take U96A U143G: the self-cleavage came to 0.1.
Consider U96A U143C, for which the self-cleavage was 0.06.
In the case of U96A U143A, the self-cleavage is 0.38.
With A94G U143A, the self-cleavage worked out at 0.55.
As for U96A G127U, the figure is 0.05; as for G97A A117U, 0.17; as for A92G U109A, 0.08.
The result for A92G U109C reads 0.09; that for A92G C103U, 0.03.
The result for G97A U108C reads 0.17; that for A94C U109A, 0.05.
As to A94C U109C, the self-cleavage turned out to be 0.
As for U96G A124G, the self-cleavage is 0.19.
The result for A94G A129U reads 0.22; that for G93U G127C, 0.19.
The result for A94G C133A reads 0.46.
As for A92U A124U, the figure is 1.2; as for U96A U109C, 0.1.
Consider U96G U112C, for which the self-cleavage is 0.05.
U91A A140G: the self-cleavage was 0.45.
Turning to U96A U112C, the self-cleavage amounted to 0.06.
On to U91C U102C, for which the self-cleavage is 0.4.
As for U91C G135A, the figure is 0.73; as for A94G G126A, 0.21.
The result for A94G G105U reads 0.2; that for A94G G105A, 0.18.
The result for A92G A107U reads 0.09; that for U91C C98A, 0.06.
G93U A136G: the self-cleavage is 0.08.
The result for U96C U119C reads 0.22.
With U96C U119A, the self-cleavage came to 0.18.
The result for G93U U102C reads 0.04.
As for C95A U100C, the figure is 0.09.
As for A92G U132C, the figure is 0.05.
For G93A U102C, the self-cleavage came out at 0.06.
A92G C128A: the self-cleavage was 0.04.

(Values after the RNAGym collection of RNA variant scans (doi:10.7554/elife.90254).)
